Measured values as given in PMC4741384 (2016).

B1: full-length mCherry-lacR-MDC1 [human] / FN-TNKS1 (flag tag and NLS signal, pCDNA 3.1) [human] (parent complex)
chain 1: MEDTQAIDWDVEEEEETEQSSESLRCNVEPVGRLHIFSGAHGPEKDFPLHLGKNVVGRMPDCSVALPFPSISKQHAEIEILAWDKAPILRDCGSLNGTQILRPPKVLSPGVSHRLRDQELILFADLLCQYHRLDVSLPFVSRGPLTVEETPRVQGETQPQRLLLAEDSEEEVDFLSERRMVKKSRTTSSSVIVPESDEEGHSPVLGGLGPPFAFNLNSDTDVEEGQQPATEEASSAARRGATVEAKQSEAEVVTEIQLEKDQPLVKERDNDTKVKRGAGNGVVPAGVILERSQPPGEDSDTDVDDDSRPPGRPAEVHLERAQPFGFIDSDTDAEEERIPATPVVIPMKKRKIFHGVGTRGPGAPGLAHLQESQAGSDTDVEEGKAPQAVPLEKSQASMVINSDTDDEEEVSAALTLAHLKESQPAIWNRDAEEDMPQRVVLLQRSQTTTERDSDTDVEEEELPVENREAVLKDHTKIRALVRAHSEKDQPPFGDSDDSVEADKSSPGIHLERSQASTTVDINTQVEKEVPPGSAIIHIKKHQVSVEGTNQTDVKAVGGPAKLLVVSLEEAWPLHGDCETDAEEGTSLTASVVADVRKSQLPAEGDAGAEWAAAVLKQERAHEVGAQGGPPVAQVEQDLPISRENLTDLVVDTDTLGESTQPQREGAQVPTGREREQHVGGTKDSEDNYGDSEDLDLQATQCFLENQGLEAVQSMEDEPTQAFMLTPPQELGPSHCSFQTTGTLDEPWEVLATQPFCLRESEDSETQPFDTHLEAYGPCLSPPRAIPGDQHPESPVHTEPMGIQGRGRQTVDKVMGIPKETAERVGPERGPLERETEKLLPERQTDVTGEEELTKGKQDREQKQLLARDTQRQESDKNGESASPERDRESLKVEIETSEEIQEKQVQKQTLPSKAFEREVERPVANRECDPAELEEKVPKVILERDTQRGEPEGGSQDQKGQASSPTPEPGVGAGDLPGPTSAPVPSGSQSGGRGSPVSPRRHQKGLLNCKMPPAEKASRIRAAEKVSRGDQESPDACLPPTVPEAPAPPQKPLNSQSQKHLAPPPLLSPLLPSIKPTVRKTRQDGSQEAPEAPLSSELEPFHPKPKIRTRKSSRMTPFPATSAAPEPHPSTSTAQPVTPKPTSQATRSRTNRSSVKTPEPVVPTAPELQPSTSTDQPVTSEPTSQVTRGRKSRSSVKTPETVVPTALELQPSTSTDRPVTSEPTSQATRGRKNRSSVKTPEPVVPTAPELQPSTSTDQPVTSEPTYQATRGRKNRSSVKTPEPVVPTAPELRPSTSTDRPVTPKPTSRTTRSRTNMSSVKTPETVVPTAPELQISTSTDQPVTPKPTSRTTRSRTNMSSVKNPESTVPIAPELPPSTSTEQPVTPEPTSRATRGRKNRSSGKTPETLVPTAPKLEPSTSTDQPVTPEPTSQATRGRTNRSSVKTPETVVPTAPELQPSTSTDQPVTPEPTSQATRGRTDRSSVKTPETVVPTAPELQASASTDQPVTSEPTSRTTRGRKNRSSVKTPETVVPAAPELQPSTSTDQPVTPEPTSRATRGRTNRSSVKTPESIVPIAPELQPSTSRNQLVTPEPTSRATRCRTNRSSVKTPEPVVPTAPEPHPTTSTDQPVTPKLTSRATRRKTNRSSVKTPKPVEPAASDLEPFTPTDQSVTPEAIAQGGQSKTLRSSTVRAMPVPTTPEFQSPVTTDQPISPEPITQPSCIKRQRAAGNPGSLAAPIDHKPCSAPLEPKSQASRNQRWGAVRAAESLTAIPEPASPQLLETPIHASQIQKVEPAGRSRFTPELQPKASQSRKRSLATMDSPPHQKQPQRGEVSQKTVIIKEEEEDTAEKPGKEEDVVTPKPGKRKRDQAEEEPNRIPSRSLRRTKLNQESTAPKVLFTGVVDARGERAVLALGGSLAGSAAEASHLVTDRIRRTVKFLCALGRGIPILSLDWLHQSRKAGFFLPPDEYVVTDPEQEKNFGFSLQDALSRARERRLLEGYEIYVTPGVQPPPPQMGEIISCCGGTYLPSMPRSYKPQRVVITCPQDFPHCSIPLRVGLPLLSPEFLLTGVLKQEAKPEAFVLSPLEMSST
chain 2: MAASRRSQHHHHHHQQQLQPAPGASAPPPPPPPPLSPGLAPGTTPASPTASGLAPFASPRHGLALPEGDGSRDPPDRPRSPDPVDGTSCCSTTSTICTVAAAPVVPAVSTSSAAGVAPNPAGSGSNNSPSSSSSPTSSSSSSPSSPGSSLAESPEAAGVSSTAPLGPGAAGPGTGVPAVSGALRELLEACRNGDVSRVKRLVDAANVNAKDMAGRKSSPLHFAAGFGRKDVVEHLLQMGANVHARDDGGLIPLHNACSFGHAEVVSLLLCQGADPNARDNWNYTPLHEAAIKGKIDVCIVLLQHGADPNIRNTDGKSALDLADPSAKAVLTGEYKKDELLEAARSGNEEKLMALLTPLNVNCHASDGRKSTPLHLAAGYNRVRIVQLLLQHGADVHAKDKGGLVPLHNACSYGHYEVTELLLKHGACVNAMDLWQFTPLHEAASKNRVEVCSLLLSHGADPTLVNCHGKSAVDMAPTPELRERLTYEFKGHSLLQAAREADLAKVKKTLALEIINFKQPQSHETALHCAVASLHPKRKQVTELLLRKGANVNEKNKDFMTPLHVAAERAHNDVMEVLHKHGAKMNALDTLGQTALHRAALAGHLQTCRLLLSYGSDPSIISLQGFTAAQMGNEAVQQILSESTPIRTSDVDYRLLEASKAGDLETVKQLCSSQNVNCRDLEGRHSTPLHFAAGYNRVSVVEYLLHHGADVHAKDKGGLVPLHNACSYGHYEVAELLVRHGASVNVADLWKFTPLHEAAAKGKYEICKLLLKHGADPTKKNRDGNTPLDLVKEGDTDIQDLLRGDAALLDAAKKGCLARVQKLCTPENINCRDTQGRNSTPLHLAAGYNNLEVAEYLLEHGADVNAQDKGGLIPLHNAASYGHVDIAALLIKYNTCVNATDKWAFTPLHEAAQKGRTQLCALLLAHGADPTMKNQEGQTPLDLATADDIRALLIDAMPPEALPTCFKPQATVVSASLISPASTPSCLSAASSIDNLTGPLAELAVGGASNAGDGAAGTERKEGEVAGLDMNISQFLKSLGLEHLRDIFETEQITLDVLADMGHEELKEIGINAYGHRHKLIKGVERLLGGQQGTNPYLTFHCVNQGTILLDLAPEDKEYQSVEEEMQSTIREHRDGGNAGGIFNRYNVIRIQKVVNKKLRERFCHRQKEVSEENHNHHNERMLFHGSPFINAIIHKGFDERHAYIGGMFGAGIYFAENSSKSNQYVYGIGGGTGCPTHKDRSCYICHRQMLFCRVTLGKSFLQFSTMKMAHAPPGHHSVIGRPSVNGLAYAEYVIYRGEQAYPEYLITYQIMKPEAPSQTATAAEQKT

Variants of: B1
Experiment: lacO-array tethering colocalization (immunofluorescence) in U2OS17 cells; N = 100 cells in each experiment, three independent experiments; read off a plot

| screen value | Variant |
| --- | --- |
| ~27% | chain 1 L1996A, chain 1 E1997A, chain 1 G1998A |
| ~30% | chain 1 P951A, chain 1 E952A, chain 1 G953A |
| ~3.7% | chain 1 P951A, chain 1 E952A, chain 1 G953A, chain 1 L1996A, chain 1 E1997A, chain 1 G1998A |
